Measurements taken from the supplement of paper PMC9876800.

Tested on: peptide library, one residue held at a place counted from the S/T acceptor
Assay: relative phosphorylation of the sub-library (ratio to the mean residue at this position); human; higher = residue favoured
Method in brief: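 Each biotinylated degenerate peptide sub-library fixed one residue at one position around a central Ser/Thr and was incubated with a purified recombinant kinase, a human or orthologue construct, in 384-well plates. The 90 min reactions, under kinase-specific conditions, contained 50 μM peptide and 50 μM ATP spiked with γ-32P-ATP. Phosphorylation was read by phosphorimaging spots on streptavidin membranes and quantifying them by densitometry. Relative sub-library phosphorylation expresses each value as a ratio to the mean residue at that position.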

PAK1, construct: aa150-end, sequence (Q13153 150-545, looked up): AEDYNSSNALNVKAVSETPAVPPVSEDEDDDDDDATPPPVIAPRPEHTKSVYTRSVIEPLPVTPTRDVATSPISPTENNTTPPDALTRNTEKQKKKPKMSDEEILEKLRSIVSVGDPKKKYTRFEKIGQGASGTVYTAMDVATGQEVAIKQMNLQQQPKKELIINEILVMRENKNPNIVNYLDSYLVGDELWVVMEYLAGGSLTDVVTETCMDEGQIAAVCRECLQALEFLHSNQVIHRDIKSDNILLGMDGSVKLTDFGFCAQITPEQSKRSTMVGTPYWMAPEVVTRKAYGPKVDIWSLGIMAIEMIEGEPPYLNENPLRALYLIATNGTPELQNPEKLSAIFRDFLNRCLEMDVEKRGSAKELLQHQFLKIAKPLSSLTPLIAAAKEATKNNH

PAK1, construct: aa150-end (from UniProt Q13153)
relative phosphorylation
Settings | at +1 | at +2 | at +3 | at +4 | at -1 | at -2 | at -3 | at -4 | at -5
A fixed | 0.877 | 1.16 | 0.875 | 1.05 | 0.946 | 0.789 | 0.87 | 1.27 | 1.39
D fixed | 0.338 | 0.472 | 0.959 | 1.32 | 0.592 | 0.203 | 0.558 | 0.825 | 0.785
E fixed | 0.428 | 0.398 | 1.09 | 1.29 | 0.559 | 0.206 | 0.495 | 0.85 | 0.676
F fixed | 0.993 | 1.14 | 1.33 | 0.741 | 0.696 | 0.346 | 0.464 | 0.633 | 0.68
G fixed | 0.895 | 0.726 | 1.22 | 1.24 | 0.782 | 0.526 | 0.869 | 1.4 | 1.44
H fixed | 1.09 | 1.6 | 1.17 | 0.97 | 1.35 | 1.37 | 1.4 | 1.14 | 1.16
I fixed | 1.03 | 1.1 | 0.826 | 0.773 | 0.564 | 0.551 | 0.41 | 0.529 | 0.55
K fixed | 1.18 | 0.604 | 0.775 | 1.08 | 1.72 | 1.32 | 2.34 | 1.71 | 1.88
L fixed | 0.969 | 1.09 | 1.04 | 0.77 | 0.821 | 0.374 | 0.415 | 0.547 | 0.53
M fixed | 1.58 | 1.02 | 0.913 | 0.783 | 0.927 | 0.36 | 0.485 | 0.744 | 0.587
N fixed | 0.895 | 0.885 | 0.971 | 1.11 | 1.19 | 0.518 | 0.965 | 1.01 | 1.03
P fixed | 0.228 | 0.716 | 1.03 | 1.4 | 0.646 | 1.08 | 0.823 | 1.24 | 1.16
Q fixed | 1.3 | 0.766 | 0.897 | 1.2 | 1.11 | 0.673 | 0.952 | 1.08 | 0.964
R fixed | 1.46 | 0.793 | 0.841 | 0.95 | 2.22 | 6.99 | 4.23 | 1.99 | 2.04
V fixed | 0.971 | 0.925 | 0.797 | 0.851 | 0.766 | 0.724 | 0.431 | 0.624 | 0.707
W fixed | 1.57 | 0.978 | 1.03 | 0.806 | 0.886 | 0.369 | 0.703 | 0.756 | 0.668
Y fixed | 1.19 | 2.62 | 1.22 | 0.652 | 1.22 | 0.6 | 0.594 | 0.672 | 0.762
pThr fixed | 0.668 | 0.676 | 0.877 | 1.4 | 0.439 | 0.503 | 0.568 | 0.857 | 0.666
pTyr fixed | 0.886 | 4.31 | 1.28 | 1.09 | 0.672 | 0.392 | 0.853 | 0.808 | 0.675
